Tests used:
Assay in all cases: cell_activity
ZFP-TF 75109 (synthetic) = settings: expanded isoform, C9 patient fibroblasts; about 50% total C9 maintained
ZFP-TF 75114 (synthetic) = settings: expanded sense transcript, C9021 fibroblasts; total C9 preserved >50%; no repression in C9-BAC mice (p172)
ZFP-TF 75115 (synthetic) = settings: expanded sense transcript, C9021 fibroblasts; total C9 preserved >50%

Question: Which activity (ZFP-TF 75109 (synthetic)) does the source give for “CACGCCCCGGCCCCGGCCCCGGCCCCTA (double strand) [C9orf72 antisense target, frame 4]” here?
Answer: 70 % repression

Question: What about the activity (ZFP-TF 75114 (synthetic)) of the same sequence?
Answer: > 70 % repression

Question: And the activity (ZFP-TF 75115 (synthetic))?
Answer: > 70 % repression
